Laboratory results taken from patent US12723255B2, “Herbicide tolerance genes and methods of use thereof” (priority 2014, dated 2026).

Key:
Assay type in all cases: in vivo
F1 hybrid maize plants [1] = assay: plant-based assay for heat sensitivity, quizalofop-P tolerance; conditions: 2× quizalofop-P, ten days post treatment, 0 no visible injury, 5 dead plants
Experimental: A plant-based enzyme activity assay for heat sensitivity was used to determine the effect of elevated growth temperatures on the herbicide tolerance of transgenic plants containing the optimized engineered proteins. To test for quizalofop-P tolerance at elevated growth temperatures, F1 hybrid (produced by crossing an R1 homozygous plant expressing one of the MON-HT proteins with inbred maize event MON89034) maize seed was grown in a growth chamber for 10 days at a day temperature of 28° C. and a night temperature of 20° C. with 50% humidity. After 10 days, the plants were moved to acclimate for 3 days at one of three different day and night temperature regimens: (1) both day and night temperatures set at 20° C.; (2) day temperature at 28° C. and night temperature at 20° C.; or (3) day temperature at 38° C. and night temperature at 30° C. At the end of the acclimation period, the plants were generally at V4 growth stage and were sprayed with 2× quizalofop-P. Ten days post treatment the plants were scored for injury on a rating scale of 1 to 5 where ‘0’ is no visible injury observed, ‘1’ is chlorotic speckling, ‘2’ is chlorotic streaking, ‘3’ there are leaf gaps or tears, ‘4’ are plants with stunted growth and/or twisted leaves, and ‘5’ are dead plants or no growth observed. […] (FIG. 4A) or 28° C./20° C. […]

F1 hybrid maize plants [2] = assay: 2,4-D tolerance at elevated growth temperatures; conditions: 4× 2,4-D amine; day/night 38° C./30° C.; ten days after treatment
Experimental: To test for 2,4-D tolerance at elevated growth temperatures, F1 hybrid plants were produced by crossing an R1 plant containing MON-HTI, MON-HT2, MON-HT3, MON-HT4, MON-HT7, or MON-HT55 with an inbred plant containing maize event MON89034. The F1 hybrid plants were grown in a greenhouse for one week at a minimum temperature of 20° C. and a maximum temperature of 28° C. with 50 to 80% humidity. After 1 week, the plants were moved to acclimate for three days at one of two different day and night temperature regimens: (1) both day and night temperatures set at 20° C. or (2) day temperature at 38° C. and night temperature at 30° C. At the end of the acclimation period, the plants were generally at V4 growth stage and were sprayed with 4× 2,4-D amine. Ten days after treatment the plants were scored for injury using an injury scale of 0 to 100 with “0” being no injury and “100” being a dead plant. When plants were acclimated at day/night temperatures of 20° C./20° C. prior to application of 4× 2,4-D amine, F1 plants containing MON-HT1, MON-HT2, MON-HT3, MON-HT4, MON-HT7, or MON-HT55 had injury rating averages of <10%, and the control plants had injury rating averages of <20% (FIG. 4D). […]

[3] = test system: transgenic soybean plants; assay: R0 soybean 2,4-D spray test of 2,4-D optimized variants
Source text: An additional five engineered proteins optimized for activity for 2,4-D were then selected for analysis in transgenic soybean. DNA constructs were produced for expressing MON-HT13 (SEQ ID NO:47), MON-HT14 (SEQ ID NO:48), MON-HT15 (SEQ ID NO:49), MON-HT17 (SEQ ID NO:51), and MON-HT18 (SEQ ID NO:52) with codon usage optimized for dicot expression. The operably linked expression elements (promoter, leader, intron, CTP, and 3′UTR) were identical in all of the constructs. Leaf samples were taken from R0 plantlets and single copy plants were identified using a PCR-based assay. When the single-copy R0 plants had approximately two to three trifoliate leaves, they were treated with either 1.5 lb ae/acre (2×) or 3.0 lb ae/acre (4×) of 2,4-D. Seven days after herbicide application, the plants were scored for herbicide injury based on the percent area of the plant showing injury, as indicated above.

B1: MON-HT55: engineered oxygenase protein, amino acid sequence SEQ ID NO:11 (protein)
chain: MHAALSPLSQRFERIAVQPLTGVLGAEITGVDLREPLDDSTWNEILDAFHTYQVIYFPGQAITNEQHIAFSRRFGPVDPVPLLKSIEGYPEVQMIRREANESGRVIGENWHTDSTFLDAPPAAVVMYAKEIPPYGGDTLFTSMYTAWETLSPTMQATIEGLNVVHSATRVFGSLYQAQNRRFSNTSVKVMDVDAGDRETVHPLVVTHPETGRKGLYVNQVYCQRIEGMSEKESEPLLSFLFAHATKPEFTCRVRWQEGDVLVWDNLCTQHYAVPDYAGKFRYLTRTTVGGVRPAR
injury rating (F1 hybrid maize plants [1]; day/night 20° C./20° C. or 28° C./20° C.): around 2
injury rating (F1 hybrid maize plants [1]; day/night 38° C./30° C.): 3
injury rating averages (F1 hybrid maize plants [2]): 50%

B2: MON-HT1: engineered oxygenase protein, amino acid sequence SEQ ID NO:14 (protein)
chain: MHAALTPLTNKYRFIDVQPLTGVLGAEITGVDLREPLDDSTWNEILDAFHTYQVIYFPGQAITNEQHIAFSRRFGPVDPVPILKSIEGYPEVQMIRREANESSRFIGDDWHTDSTFLDAPPAAVVMRAIEVPEYGGDTGFLSMYSAWETLSPTMQATIEGLNVVHSATKVFGSLYQATNWRFSNTSVKVMDVDAGDRETVHPLVVTHPVTGRRALYCNQVYCQKIQGMTDAESKSLLQFLYEHATKFDFTCRVRWKKDQVLVWDNLCTMHRAVPDYAGKFRYLTRTTVAGDKPSR
Events with <20% injury ([3]; 2,4-D rate 2X (1.5 lb ae/acre), single copy R0 soy, seven days after application): 12
tolerance to 2,4-D treatment ([3]; 2× application rate, soy): excellent tolerance
